# Test results: article PMC11790920 (Nature Communications, 2025)
# T1: eukaryotic translation elongation factor 1A (eEF1A), native, full length (S. cerevisiae, UniProt P02994 1-458)
# T1 sequence (looked up): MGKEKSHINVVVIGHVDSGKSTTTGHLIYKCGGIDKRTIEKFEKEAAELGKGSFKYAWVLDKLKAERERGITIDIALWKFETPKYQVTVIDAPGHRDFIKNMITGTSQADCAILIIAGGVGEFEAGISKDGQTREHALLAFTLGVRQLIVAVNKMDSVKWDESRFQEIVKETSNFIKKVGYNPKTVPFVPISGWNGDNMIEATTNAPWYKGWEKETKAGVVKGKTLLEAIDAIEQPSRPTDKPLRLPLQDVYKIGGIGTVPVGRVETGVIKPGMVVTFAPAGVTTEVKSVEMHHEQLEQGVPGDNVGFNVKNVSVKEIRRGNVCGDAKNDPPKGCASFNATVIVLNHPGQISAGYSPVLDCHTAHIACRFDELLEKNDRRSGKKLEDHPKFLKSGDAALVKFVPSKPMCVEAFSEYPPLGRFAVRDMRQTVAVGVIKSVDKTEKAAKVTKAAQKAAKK
# Target: T1, eukaryotic translation elongation …
# Experiment: pull-down
binder,measurement,value
"recombinant Ypl225w-3xFLAG (natural protein, S. cerevisiae, UniProt Q08971 1-146, looked up) MSTFNAETADNLEDIEKQFAVVAVEQAETYWKLLTSVPGSKLRLTKFDDEIYENFMERFPEYKDVERVKKFTEEELKTKEAKERWRKFFTIFEKKIEDYNFGTLLRTDASAEYGQFTTCFVVRLQFYAFEIARNKHGLNDWIVGQK",binding result,binds
